Assay results reported in PMC3445459.

What was measured:
[1] = target: HIV-1 integrase E85F, 6xHis-tagged (HIV-1 (NL4-3))
[2] = target: HIV-1 integrase E85F, 6xHis-tagged (HIV-1 (NL4-3)); remark: listed apart in the source
[3] = target: HIV-1 integrase K103E, 6xHis-tagged (HIV-1 (NL4-3))
[4] = target: LEDGF/p75 (UniProt O75475); experiment: AlphaScreen or HTRF; IN-LEDGF/p75 interaction assay as previously described (ref. 32), mutant IN proteins in place of WT; signal relative to WT IN
[5] = target: HIV-1 integrase W108F, 6xHis-tagged (HIV-1 (NL4-3))

Sequence of UniProt O75475 (O75475 whole entry): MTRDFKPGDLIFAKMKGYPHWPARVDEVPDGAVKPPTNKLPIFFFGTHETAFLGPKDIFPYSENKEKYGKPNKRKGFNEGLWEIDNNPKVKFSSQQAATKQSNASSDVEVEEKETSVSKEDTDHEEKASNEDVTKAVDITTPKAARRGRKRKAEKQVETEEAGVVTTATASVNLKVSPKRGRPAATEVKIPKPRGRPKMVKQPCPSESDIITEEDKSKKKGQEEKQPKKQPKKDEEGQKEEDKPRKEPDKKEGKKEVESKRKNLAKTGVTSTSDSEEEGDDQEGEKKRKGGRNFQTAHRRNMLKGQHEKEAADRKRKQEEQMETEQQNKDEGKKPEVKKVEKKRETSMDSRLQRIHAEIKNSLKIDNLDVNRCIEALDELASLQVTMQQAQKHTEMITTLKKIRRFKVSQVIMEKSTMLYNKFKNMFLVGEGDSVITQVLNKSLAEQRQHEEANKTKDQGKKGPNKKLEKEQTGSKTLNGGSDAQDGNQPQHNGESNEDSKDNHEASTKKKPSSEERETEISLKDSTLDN

For “HIV-1 integrase E85F, 6xHis-tagged (enzyme)”, the in vitro strand transfer activity with pre-processed 19-mer DNA substrate, relative to WT IN [1] was 1.6 fold of WT and the in vitro strand transfer activity with 21-mer DNA substrate, relative to WT IN [2] was 37 % of WT.

“HIV-1 integrase K103E, 6xHis-tagged (enzyme)” was tested, and the in vitro strand transfer activity with pre-processed 19-mer DNA substrate, relative to WT IN [3] was 29 % of WT.

For “HIV-1 integrase K103G, 6xHis-tagged (enzyme)”, the interaction relative to WT IN (of the WT interaction) [4] was < 0.33 and the percent of the WT interaction level [4] was 30 % of WT.

In the case of “HIV-1 integrase W108F, 6xHis-tagged (enzyme)”, the in vitro strand transfer activity with pre-processed 19-mer DNA substrate, relative to WT IN [5] is reported as 30 % of WT.
